We go through two molecules from PMC9871958 (Protein & Cell, 2022).

This assay concerns the target SARS-CoV-2 RBD protein (SARS-CoV-2, UniProt P0DTC2). The experiment in a line: ELISA. The following applies: both partners purified. For orientation: ELISA stands for enzyme-linked immunosorbent assay.

B1: 1F mutated at R102 (antibody, V domains shown)
VH: EVQLVESGPGLVKPSETLSLTCTVSGGSISSSSYYWGWIRQPPGKGLEWIGSIYYRGSTYYNPSLKSRVTISVDTSKNQFSLKLSSVTAADTAVYYCARHVASAYYYGSGSYRDEGNWFDPWGQGTLVTVSS
VL: QSVLTQPPSVSGAPGQRVTISCTGTRSNIGAGHDVHWYQQLPGTAPKLLIYGNNNRPSGVPDRFSGAKSGTSASLAITGLQAEDEADYYCQSYDRTLTSYVFGTGTKVTVL
notes: also called mutated 1F (R102)
As to B1, the binding result is given as “no binding”.

B2: 1F mutated at D114 (antibody, V domains shown)
VH: EVQLVESGPGLVKPSETLSLTCTVSGGSISSSSYYWGWIRQPPGKGLEWIGSIYYRGSTYYNPSLKSRVTISVDTSKNQFSLKLSSVTAADTAVYYCARHVRSAYYYGSGSYRAEGNWFDPWGQGTLVTVSS
VL: QSVLTQPPSVSGAPGQRVTISCTGTRSNIGAGHDVHWYQQLPGTAPKLLIYGNNNRPSGVPDRFSGAKSGTSASLAITGLQAEDEADYYCQSYDRTLTSYVFGTGTKVTVL
notes: also called mutated 1F (D114)
B2: the binding result is given as “no binding”.
